From the nanobody polyreactivity screen of Harvey et al. (2022) come the findings set out here.

The nature of this data set: yeast display, Sf9 membrane polyspecificity reagent, FACS + sequencing; frameworks hold sequencing errors. The essentials:
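Polyreactivity labels are assigned by the sorting gate from which each nanobody was recovered. The gates were low and high (top ~1%), set on anti-HA fluorescence for expression and streptavidin fluorescence for reagent binding. Before sorting, galactose-induced (36–48 hours) yeast display cells were stained for 1 hour at 4 °C with 10% biotinylated, detergent-solubilized Sf9 membrane reagent.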
In the case of “QVQLVESGGGLVQAGGSLRLSCAASGRIFITNAMGWYRQAPGKERELVAAIRRRGGNTYYADSVKGRFTISRDNANNTVYLQINSLKPEDTAVYYCAVYPRPYKYNYWGQGTQVTVSS”, the “polyreactivity (PSR sort gate)” value was “high polyreactivity”.

Turning to “QVQLVESGGGLVQAGGSLRLSCAASGSIFRYYAMGWYRQAPGKEREFVAAITRSGGSTTYADSVKGRFTISRDNAKNTVYLQMNSLKPEDTAVYYCNAKSSRFQVFNYGYWGQGTQVTVSS”, the “polyreactivity (PSR sort gate)” value was “high polyreactivity”.

For the sequence “QVQLVESGGGLVQAGGSLRLSCAASGSTFYIYAMGWYRQAPGKDRELVARISGSGGSTYYADSVKGRITISRDNAKNTVYLQMNSLKPEDTAVYYCAATKFNSFYWRYGYWGQGTQVTVSS”, the “polyreactivity (PSR sort gate)” value was “low polyreactivity”.

For “QVQLVESGGGLVQAGGSLRLSCAASGFIFRYYAMGWYRPAPGKERELVAAISASGGSTYYADSVKGRCTISRDNAKNSDYLLMNSLKPEDTAVYYCATYYQKYRSEYWGQGTQVTVSS”, the “polyreactivity (PSR sort gate)” value is on record as “high polyreactivity”.

In the case of “QVQLVESGGGLVQAGGSLRLSCAASGSIFRAYAMGWDRQAPGKERELVATISGSGGSRSYADSVKGRFTISRDNAKNTVDLQMNSLKPEDTAVYYCARDRYYKYTSYDYWGQGTQVTVSA”, the “polyreactivity (PSR sort gate)” value was “low polyreactivity”.

Consider “QVQLVESGGALVQAGGSLRLSCAASRITFTDNAMGWYRQAPGKERELVAAISSGASTYYADSVKGRFTISRDNAKNTVYLQMNSLKPEDSAVYYCATRQTYNYPWHYRYYYWGQGTQVTVSS”, for which the “polyreactivity (PSR sort gate)” value was “high polyreactivity”.

As for “QVQLVESGGGLVQAGGSLRLICAASGRIFWSNAMRWSRQAPGKVSELVAAISSGGSTYYADSVKGRFTISRDNAKNTVYLQMNRLKPEDTAVYYCATRGIQRGFSRWGGLDYWGQGTLVTVSS”, the “polyreactivity (PSR sort gate)” value is “low polyreactivity”.

In the case of “QVQLVESGGGLVQAGGSLRLSCAASGFTFRFYVMGWYRQAPGKERELVAAISSGGGSTYYADSVKGRFTISRDNAKNTVYLQMNSLKPEDTAVYYCNALKVSFLTITKYEYWGQGTQVTVSS”, the “polyreactivity (PSR sort gate)” value is “high polyreactivity”.

Turning to “QVQLVESGGGLVQAGGSLRLSCAASGSTFAGNAMGWYRKAPGKERELVAAITFSGGRTDYADSVKGRFTISRDNAKNTVYLQMNSLNPEDTSVYYCAAPADDTVHYQNYYWGQGTQVTVSS”, the “polyreactivity (PSR sort gate)” value was “low polyreactivity”.

Regarding “QVQLVESGGGLVQAGGSLRLSCAASGNIFLSYAMGWYRQAPGKERDLVAGISASGGRTYYADSVKGRFTISRDNAKNTVYFQMNSLKPEDTALYYCNAGWGVVIRRYPTYDYWGQGTQVTVSS”, the “polyreactivity (PSR sort gate)” value is listed as “high polyreactivity”.

As for “QVQLVESGGGLVQAGGSLRLSCAASGSTFQSYTMGWYRQAPGKERELVATITSTSSTSYADSVKGRFTISRDNAKNTVYLQMNSLKPEDTAVYYCNAEGLHWGQGTQVTVSS”, the “polyreactivity (PSR sort gate)” value is “low polyreactivity”.

“QVQLVESGGGLVQAGGSLRLSCAASGFTFKQNAMGWYRQAPGKERELVAAISSSGRTNYADSVKGRFTISRDNAKNTVYLQMNSLKPEDTAVYYCAAATYNAYGRRSRYYHGYNSWGQGTQVTVSS”: the “polyreactivity (PSR sort gate)” value is given as “high polyreactivity”.

With “QFQLVESGGGLVQAGGSLRLSCAASGSTFKSYAMGWYRQAPGKEREFVAVITWSGGRTSYADSVKGRFTISRDNAKNTVYLQMNSLKPEDTAVYYCAAKAASRYRAFTYDYWGQGTQVTVSS”, the “polyreactivity (PSR sort gate)” value is listed as “low polyreactivity”.

Consider “QVQLVESGGGLVQAGGSLRLSCAASGSIFYSYAMGRYRQAPGKERELVAAITKSSGSTYYADSVKGRFTISRDNAKNTVYLQMNSLKPEDTAVYYCAATRYRPVRLYYWGQGTQVTVSS”, for which the “polyreactivity (PSR sort gate)” value is listed as “high polyreactivity”.

Turning to “HVQLVETVGGLVQAGGSLRLSCAASGSNFDPNAMGWYRQAPVKERELVAAISWSGGSTYYADSVKGRFTISRDNAKNNVYLQMHSLKPEDTAVYYCNAQFYDSYSYTNDYWGQGTQVTVSS”, the “polyreactivity (PSR sort gate)” value was “low polyreactivity”.

Turning to “QVQLVESVGGLVQAGGSLSLRCAASGLISRRNAMGWYRQAPGKERELVAAISTGSSTNYADSVKGRFTISRDNAKNTVYLQMNSLKTEDTAFYYCATDYLAGAPCEGHVEREYDYWGQGTQVTVSS”, the “polyreactivity (PSR sort gate)” value is “low polyreactivity”.

Turning to “QVQLVESGGGLVQAGGSLRLSCAASGSTLYPYDMGWYRPAPGKERELVAAIDSGGSTNYADSVKGRFTISRDNAKNTVYLQMNSLKPEDTAVYYCATEILTSARDTVVYQFYLGYYYWGQGTQVTVSS”, the “polyreactivity (PSR sort gate)” value is reported as “low polyreactivity”.

“QVQLVESGGGLVQAGGSLRLSCDASGRIFRENAMGWYRQAPGKERELVAAINRSGSRTYYADSVKGRFTISRDNAKNTVYLQMNSLKPEDTAVYYCATASSIRYDYWGQGTQVTVSS”: the “polyreactivity (PSR sort gate)” value is “high polyreactivity”.

Take “QVQLVESGGGLVQPGGSLRLSCAASGSTFSGYTMGWYRQAPGKERELVASISSGVSTYYADSVKGRFTISRDNAKNTVYLQMNSLKPEDTAVYYCAADSVGDYGYQVYASWGYEDEYWGQGTQVTVSS”: the “polyreactivity (PSR sort gate)” value is “low polyreactivity”.

With “QVQLVESGGGLVQAGGSLRLSCAASGNTFFDNAMGWYRQAPGKERELVAAITFSGGSTYYADSVKGRFTISRDNAKNTVYLQMNSLKPEDTAVYYCAAVIRSRYSYYEYDYWGQGTQVTVSS”, the “polyreactivity (PSR sort gate)” value is “high polyreactivity”.

Take “QVQLVESGGGLVQAGGSLRLSCAASGSIFSFYSMGWYRQAPGKERELVSGITWSGGSTYYADSVKGRFTISRDNAKNTVYLQMNSLKPEDTAVYYCAKTKWYYWYTSFPSVQSYDYWGQGTHVTVSS”: the “polyreactivity (PSR sort gate)” value is reported as “high polyreactivity”.

On to “QVQLVESGGGLVQAGGSLRLSCAASGRTIKYYDMGWYRQAPGKERELVADISGRGGSTYYADSVKGRFTISRDNAKNTVYLQMNSLIPEDTAVYYCNAEWFTSSYAHYGMEHWGQGTQVTVSS”, for which the “polyreactivity (PSR sort gate)” value is listed as “low polyreactivity”.

Consider “QVQLVESGGGLLQAGGSLRLSCAASGRIIGWYAMGWYRPAPGKERELVAAISRGGTRTNYADSVKGRFTISRDNAKNTVYLQMNSLKPEDTAVYSCAAGGSWCQNGYWGQGTQVTVSS”, for which the “polyreactivity (PSR sort gate)” value is recorded as “high polyreactivity”.

For “QVQLVESGGGLVQAGGSLRLSCAASGFTFYANAMGWYRQAPGKERELVAAISWSGGRTYYADSVKGRFTISRDNAKNTVYLQMNSLKPEDTAVYYCAAKRWTTKNGFYEYPYYYWGQGTQVTVSS”, the “polyreactivity (PSR sort gate)” value is reported as “high polyreactivity”.

As to “QVQLVESGGGLVQAGGSLRLSCAASGSTFRYYAMGWYRQAPGKERELVAAIRSGGGTYYADSVKGRFTISRDNAKTTVYLQMNSLKPEDTAVYYCAARSYSRRVSYYYWGQGTQVTVSS”, the “polyreactivity (PSR sort gate)” value was “high polyreactivity”.

Regarding “QVQLVESGGGLVQAGGSLRLSCAASGLIFSRYAMGWYRQAPGKERELVAAITWRGGSTYYADSVKGRFTISRDNAKNTVYLQMNSLKPEDTAVYYCNADGLWFQGYNSWGQGTQVTVSS”, the “polyreactivity (PSR sort gate)” value is reported as “low polyreactivity”.

In the case of “QVQLVESGGGLVQAGGSLRLSCAASGRIFYYNAMGGYTQAPGKERELVAAIDWSGGSTYYADSVKGRITISRANAKNTVYLQMNSLKPEDTAVYYCNAPFRYVPPEGSGPYDYWGQGTQVTVSS”, the “polyreactivity (PSR sort gate)” value is recorded as “low polyreactivity”.

On to “QVQLVESGGGLVQAGCRLRLSCAAAAYIYRYAMGWYIQAPGKEREFVAAITWNGGSTYYADSVNGRFTISRDNAKITVYLQMNSLKPEDTGVYYCADDWSYYRRHFDYWGHGTQVTVSS”, for which the “polyreactivity (PSR sort gate)” value is given as “high polyreactivity”.

Consider “QVQLVESGGGLVQAGGSLRLSCAASGITFAYNAMGWYRQAPGKERELVATISIGGNTNYADSVKGRFTISRDNAKNTVYLQMNSLKPEDTAVYYCNADFPHEGGFCYWGQGTQVTVSS”, for which the “polyreactivity (PSR sort gate)” value is recorded as “low polyreactivity”.

For “QVQLVESGGGLVQAGGSLRLSCAASGRIFFVNAMGWYRQAPGKERELVAAISRGGTTYYADSVKGRFTISRDNAKNTVYLQMNSLKPEDTAVYYCNVAYTPSFYRYDYWGQGTQVTVSS”, the “polyreactivity (PSR sort gate)” value is on record as “low polyreactivity”.
